Assay: protease stability score; higher = more stable; yeast display proteolysis, trypsin and chymotrypsin;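 note: log10 excess protease needed over predicted unfolded state with 0 meaning unfolded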

Row | Sequence | protease stability score
1 | DDDAARQFEEVMKAVEHGDPHQVEELVDPNATFNVGDKRWHGMRENMQEHISRFQSINMTVEIKRVEDTNGRAKFEASVTRNDNGKPDTFTVEIVVRVHNGEIKEVQLNNTK | 0.158
2 | DDDADRRARKLDQARKEGDPDKMRKNMDPNVRMQIGDQEWSGRETIANKLATDLKRMDIEITIKRYTWHNGTADIDADETFNVDGRPNSDKVRMEVHFHNGRVEHQILRVPEEFKHRLHK | -0.115
3 | DDDAIKRFHEQVDNEQHNNEEEQEKNVDPNATVNVGDKTYHGREKWREVVKRENEEMRVKYQHVTFRRHPGRVIVRFRIVNDHNGKPTETDVNANYQMHNGRIRQVNRRTDG | 0.162
4 | DDDALRRAKEMDDQIKNGNEHEYQKMVDPNAREHIGDTTYSGRENLVKLVRDRRRHMREKVDITEMESSGDKLRIVYRAEQEHNGQPRKKRRRKVIRLSNGRVQEVKVVDDQ | 0.4
5 | DDDALRRLEELWSALEEGDESRVNRNIDPNARLKIGDTTIHGREKLAESLVRDWKEIKLEIEFKTLEAHNGQARLEAIEHFRINGRPEQINFRMQMHQRNGNVDEIVIEMDPDQQRKKES | -0.133
6 | DDDAMRKAHEFYTAYNTNDEDTLSKQFDPNARIRYGDEVIHGREQLKKWMEEIQREMSVSVRVKSMKVRGDEIHIKFDMTVDINGNPLEFDAQAEFRFRNGKFIDFTLQIPEEAQKQEHG | 0.704
7 | DDDAQNTLSDRINLIKQGNKEEVDKQADPNATVQVGDKKVQGREEIRRWIKHVKDQLNVQIEIKHVEAQGNKVRIDASFRARINGKPVRIRFILIADMHNGRFKRVVMHLDEDQQRKYEK | 0.943
8 | DDDAQRIAEDIQNALRKGDPERLNHLVDKNVKFVIGDKTIHGREDAAKQWHTMNRQMRIEVEMKHWDQQGNEVTIVARFVYEHNGRPETKRITRTITFHNGRAKEVVQKDDS | 0.09
9 | DDDAQRRLEDQLKQIEEGNPEQIRNQVDPNATLRYGDKTIQGREEIVKWWKRIRDESRIQFHLKSMEVSGDQVRVVFNLVVKHNGKPSHSQVVVTLRFHNGKVTEVSMQHTS | 1.71
10 | DDDAQRRVKTYFNLLLTGNPENLKNQVDEDVRVEIGDKEIRGSDQVAHHARQLHTEMRIHARIDDMKVQGDHIRVEVRLYFERNGQPRTKNLRASVRWHNGKMKEFVVKNDD | 0.682
11 | DDDAQRVLNEFWRHWRRGNEEELKKLVDPNAQFEVGNKTFHGREHYANYLRRVSEEMTFDINIKDMSVEGDQVVIDATIMVQVNGNPISIKVIWRANATNGKIKYLSLQIDEDMVRQQQS | 0.445
12 | DDDARDLMKEVLTAQKNNDPKHVRKLFDPNANIKYGDREVTGMDHAAKTLVDHIQQIRLQIDSVTLEVQGDTIIVHAQMVNDRNGNPDSTRFVLEAKVDGDKFKSQDKQEDS | -0.524
13 | DDDARERVDELLEVEQTGNREDIKRLVDPNAKVQVGDDEYHGMEVYAETVVKKRKEINIELRFKDMQVHNGRANADVEAVYDHNGRPSRMRFVLHFVIRNGKFKEIRLREDR | 1.2
14 | DDDARRVINDALEAMNSNNESQLAHLFDPNATFEVGDREIHGRDDFREWVRQMQEEMRFSVSVRDVQERPNHVKFDVEYEEEKNGNPDKHRAVLKARARNGKITELKLDNHK | 0.075
15 | DDDASRRFHEFVKLVRTNNPHKAMEMVDPNARFHIGDKEIHGREDVRRWVSRMLREARVTIDLKSLDVQGEKVKVTNLVRRRHNGEPQQMSVHAQVVWHNGKIKQETAHFKG | 0.127
16 | DDDATKVVKEFLSALKTNNPDRARELIDKDVRVRVGDKEIHGREQLITHIETDLKKIRIEIKHMHIDVTGEDIIIHQVFVDEHNGRPHTQTVVVFIEMNNGRVKNVRSETSS | 0.322
17 | DDDAVRKARELQKAYDHGDEQKVRDLADPNARVRVGDKKLHGMEDIAHTLAERDKQIDNTVRVDRITAHNGRVDANLRMRNNNNGRPNNFELDLKVVVDNGNIVDVDRQNNR | -0.207
18 | DDDAVRKLRELIKAVKDGDPSRAKELMDPNAEIVVGDHYIRGMDNFDKEIDRQKKEARVEYRLKRVRHDENHIKVDAEVIFNVNGRPVTFKLKMRVKLHNGKMIEVEQQVDESSIERVKS | 1.01
19 | DDDAVRLFKEELKAEKNNNPDKIRELADPNARFKVGDKTVHGRESWARTVETRAREIRNDIDVKSYDNDNGRADIKMTVHQEENGRPQHNEASANITADNGRLKEVQIHSRP | -0.356
20 | DDDAVRQAQENLKAIEDGDEDKVRNLMDPNAQVNIGDKTIHGMEEFMRQMKRKLDEIRVDYEDIKIDKQGDKARLDATWRQDDNGEPHSMKVDVDVKFRNGKIVDWQQQYDG | -0.149
21 | DDDAVRQVHTFWRILERGNSDRATEMLDENARVEVGDRSLHGREKIVTQQYRLYTQARIEVERYSAQDHGNKVHAFVLVVVHVNGTPHRFTVDVNFVFQNGRFKSIHLQVSEEQLRQEER | 0.604
22 | DDDAVRRMKEFEEAKQHGDPDELRRLADPNVRLEYGDKEIHGRDTMAQTLKNEVDEIRMEVDFRHFTSQGDKVSIQAEQSRDNNGQPQSVKAQFDARFHNGRLKHLRVQLDG | 0.114
23 | DDDDLKRITEFLKNEQKGNSEELRKLADPNATFQIGDKTIKGRDKFANEAKKRRDEMHFQYKSVHMRDHNGVAVFSVTWILDHNGKPEENTFTLQAKLTNGKIKMLRLQSRK | -0.012
24 | DDDDMKLAEEFAQAISTGDHNRVEENADKDARFDIGDKVVNGNHQRATEVKKEQDDQKVSVDINSMDATGNKVVAEINVDINNNGHPETQEHILHFTQDNGKIRHMEVKDDQ | -0.685
25 | DDDDNKTAQDRMRTNDFTTLARHAPEDAHAQIGDTTVTGRRKLEEIVVKFREQVDHMEIKDIRTSGEKVFIDLHATFDGHTVRLVIEVEVKNGRLQKLFFRVTDPERAKEIVEQLD | 0.362

Row | Sequence | protease stability score
26 | DDDDQLRSMIKSYNDNFQRGDFVRLLKMAPPDVKIRIGEDEISGREKANEFATRLEEEVDQVEAEIKSVTAHNGKASADILVEVNHNGETKHFTIEVHFDLQNGEVHLTEVVYK | 0.79
27 | DDDEARHRAEEIVRQMQSNNWKDIDKLMDKNVQIRVGDKRYTGRTRARKFIKTIADRVDHAHVVNVTVQGNKARFEFIARFDGEHVRMQMVFELHNGHAKKVEVDPEELKQLKK | 1.04
28 | DDDEARKALQWFSTGDPDKLKKNVDENAKVQIGDKEYQGRDQAATALVKLQKRVDHVEIKHVSIDGDDVVVDLVLNVDGHEVRFTNEFRVENGKFQDVHINVTNEEDEKILKRVLG | 0.932
29 | DDDEIEKIARQLVKALQKGDFKHFVELMDKDVRLEYGDKEVHGREQAKQAMKELAERVDHVQLDDYKVHNGTAEIRLKLNFNGKSADVVFDMRIEDGRVKKIVIRYRSEEHRKHIDT | 1.24
30 | DDDEIRRLAKRVVKALHDGDPDEMMRLADENAKIDVGDHRIRGREQLRDFVKQLTEDVDHIRIHDYRVTPNHARVVVVVDHNGQKSTFVVEAHMDNGTIKSMRFHER | 0.462
31 | DDDEMHKLVEHAIKAWETGDHKKAMDLIDPNAKVDVGDREIHGREEFSHHVREINKKVDRVDVQDYKVRGNKAQVRMQFNVNGQTVVVNLVFVMSNGRLSRVQIDVTDPDKFRSAQS | 0.138
32 | DDDEMRELIKSIEEVLTDGDPDEFLKQIDPNAKAQYGDTRVSGSEEIRKMAEKFSDRVDHVDVRDIKVSGDTATFDMQIDHNGRNDTVIMIVEAHNGKVKHVQYHKG | 0.142
33 | DDDEMRKLLTRLADNYKHNDPNKLAEQMDPDVEIEIGDKTYHGRENVMKHWKEQHERVDHVNIQHLDAQGENLVMTFNVTVNGKHVTVRIIFNVKNGRIKSVIVDPDDIKKLEG | 1.48
34 | DDDENKNVLKRVVDILRTGDDKKMQKLADPNARLIVGDKTYHGREDMMHWVKELKQDVDHMKVEQIEVRGERARAILVAEVNGQQRRYLLIITVHNGRLKQMEVRSQ | 1.91
35 | DDDEVRKAMRAVTNFFKGNPDQVMELIDPNAHIQVGDKSVTGREQARHLVKDVKEEQQFDVQSVDARDHGSKIVINVRFEVRHNGQPREKFMVLEMSVHNGKIQEMRVRTDS | 0.946
36 | DDDEVRKIREFMHVMSRGDSNRAMEMADPNAHFKVGDKTINGRESFKSWLRKQREEIHVQIDDVTNTSEPGHVEVNADVTFEHNGQPDRVTLIMIARLKNGRITFLEIRRKK | 1.33
37 | DDDEVRKLVHNLERGNFDDFVRQADPNAKVTIGNKTYHGREDIKSAYKKLKDQVDHLEVKRVRHHNGRLNVERIVVVNGRNIRYHVRLTIHNGRIKHIRYQATNEEQQKWMDEVIK | 0.559
38 | DDDHARRLAERFIKAFQKGDEERAKDLAPPDVKVHVGDTQYNGREQMKQAVKDFRERVDHLSVETIKVRNGRVEVHATANINGVEVNVVFTFVFRNGKMKSMDLKYRDEEAHRNWTS | 1.19
39 | DDDHATEIAKRMIDNFTTGNEENVKRLVDPNATVRIGDKRFHGRDHIRDAIRQIKERIDHIQVRTFTAHNGRIRITAEVKINGQSKEIHIELRIHNGHVVFFQLNVRNEEEWKTALS | 1.05
40 | DDDHLRKVEDFMRAQLEGDPDRLKQLADPNVRMNVGEKKVHGMQDIATEQASTYKTARYEIKSLDSKTEGDKVVITMRVQADNNGQPHDETFHLKARLENGKIVEQSKENDG | -0.529
41 | DDDKAKEIARQVWHAIREGDEDEAKRQFDKNARVVYGDKTVHGKEQAARMVHEWRRRIDHLEINDMKVDGNSVHVVFRYVHNGRERTQVVRIELDNGRVKNAEFTDQ | 1.46
42 | DDDKDRKIAEEITKLLKHGNPDELARQADPNVRLEVGDHVYHGRHQMVEWVKHFWERADHLRIKDVTTRPGHVDLVATLRFDGKEAEFKVTFEFHNGRLKRVEVDPEFQKQIDS | 1.56
43 | DDDKERKARKFAEIYMHGDWRKAHQYADPNVRIKVGDKTFQGRESLAKLVESLRKEQRLEMKRVEARVTNGRINLHLRFVVQKNGTPSHRRIHFDARMHNGKLKEMTENDKR | 0.115
44 | DDDKIRKDAETFVKILETGNQERAQRMFDENAHMRIGDKTYHGRESVHKAIKTIRDEVDHVQVRHIDIQGEEVIIQMRFDHNGNQDIMTINLVIKNGRIKSATYTRP | 0.537
45 | DDDKKAHKFFSEMLTAIQTGNEDQLRHLVDKDAHINVGDDVITGRENIVETWREKRERVDDLDAKVDSYHVHNGRIEIRAKESSTKNGKSDSRDFRIQARLTNGHVKLQKKEQN | -0.348
46 | DDDKKAKNWMERMLHIFREGDEDSYKNNFDENAEINIGDKTYHGRDRVQRLFSEIKHNVDHLKIQFQDFSTHNGRWVLIFEYSRTHNGHTEQNVIVVNMEQHNGKVVVKSMREK | 0.636
47 | DDDKQRKVEQVNRAWNEGDEETWKNNFDPNARVNVGEFNYEGMEEISKNIRDQKEQWRIEFKRMDLNMHGNKATAHFEATTNHNGNPDEFRKRLEAEFQGDRLKHMRVTEDR | -0.235
48 | DDDKRAEDWAKELIKVEQEGDEDQMERNADEDVRLKYGDTEIHGREQFREHVREQIERVDSVDVRIETFHMHNGRLDMVAEVEVQVDGRKHKDRFVFHAVDHNGRMLLKSASEG | 0.522
49 | DDDKRANQFFRDMLRVFKNNNEKEAEKLFPPDANQNVGEERVHGREQFRKEFVDDARNVDHWEARIVDLDVKNGRIVIRFEFVKDVNGRKNKDVRTLTVVNHNGRLVIERVNSG | 0.882
50 | DDDKRHLAQRFFEAMKRGDPRQALNNMDPNARVVIGDKVIRGRDKFHEHIDKLNKHQRVQYRDVKLHDQGDKITANVDVVRNENGRPHRNVYVAEFSARNGRLTEVEMREDK | -0.138

— the NTF2 design screens of Basanta et al. (2020)
